In patent US20220073594A1 (NEWSOARA BIOPHARMA, published 2022):
Changes are numbered by the printed parent chain.

B1: Antibody 37G2 (antibody, V domains shown)
VH: QVQLVQSGAEVKKPGSSVKVSCKASGGTFSSYAITWVRQAPGQGLEWMGGIIPIFGTANFAQKFQGRVTITADESTSTAYMELSSLRSEDTAVYYCAHLGGFADPFDYWGQGTLVTVSS
VL: EIVLTQSPATLSLSPGERATLSCRASQSVSNYLAWYQQKAGQAPRVLIYDAFNRATGIPARFSGSGSGTDFTLTISSLEPEDFAVYYCQQRSNWPPRITFGQGTRLEIK
B2: Antibody 31C2 (antibody, V domains shown)
VH: QVQLVQSGAEVKKPGSSVKVSCKASGGTFSSYAISWVRQAPGQGLEWMGGIIPIFGTTNYAQKFQGRVTITADESTSTAYMELNSLRSEDTAVYYCAGRSAYGDKGYYFDYWGQGTLVTVSS
VL: B1 VL with Y32F, A40P, V46L, F52S, E79Q, R97Q, I98E, R105K, L106V
B3: Antibody 15A7 (antibody, V domains shown)
VH: QVQLVQSGAEVKKPGASVKVSCKASGYTFTSYDINWVRQASGQGLEWMGWMNPNSANPGYAQKFQGRVTMTRNTSISTAFMELSSLRSDDTAVYYCARARVTIHYDILTGYYSNAFDIWGQGTMVAVSS
VL: DIQMTQSPSSLSASVGDRVTITCRASQTISSYLNWYQQKPGKAPKLLIYAASSLQSGVPSRFSGSGSGADFTLTISSLQPEDFATYYCQQSYTTFMYTFGQGTMLEIK

Assays:
SARS-CoV-2 S1 subunit = target: T1, SARS-CoV-2 S1 subunit (SARS-CoV-2, UniProt P0DTC2 16-685); test: ELISA, coated S1 protein, antibody at 1 ug/mL
T1 construct: domain: S1 subunit
Method: (§1) Polystyrene microplates (Corning) were coated overnight with 0.1 or 1 μg/mL of SARS-CoV-2 S, S1 or RBD protein (Sino Biological). After washing with PBS containing 0.2% Tween 20, the plates were blocked using 2% BSA (Sigma Aldrich) in PBST for 1 hour at 37° C. Following washing with PBST, testing antibodies (1 ug/mL) were added to each well and incubated at 37° C. for 1 hour. After washing with PBST, HRP-conjugated goat anti-human IgG antibody was added at the dilution of 1:5000 and incubated at 37° C. for 1 hour. After washing, 3,3′,5,5′-Tetramethylbenzidine (TMB) substrate solution was added to the microplate and incubated at room temperature for 6 min, followed by adding 2M H₂SO₄ to stop the reaction. The absorbance was detected at 450 nm.

[1] = target: SARS-CoV-2 RBD protein (receptor-binding domain of the spike protein) (SARS-CoV-2, UniProt P0DTC2 319-541); test: ELISA, coated RBD protein, antibody at 1 ug/mL
Method: as §1

[2] = target: SARS-CoV-2 spike protein (S protein) (SARS-CoV-2, UniProt P0DTC2 16-1213); test: ELISA, coated S protein, antibody at 1 ug/mL
Method: as §1

Binder | binding result (SARS-CoV-2 S1 subunit) | binding result [1] | binding result [2]
B1 | no binding (tested: 1 ug/mL) | – | –
B2 | no binding (tested: 1 ug/mL) | – | –
B3 | binds | binds | binds
